According to patent KR20130140557A (dated 2013):

What was measured:
a-Myc = assay: mono phage ELISA, a-Myc coated 100 ng/well, anti-M13-HRP
Fc = assay: mono phage ELISA, Fc coated 100 ng/well, anti-M13-HRP
[1] = target: T1, IL-6R-Fc 항원 (IL-6R full domain 단백질) (human, UniProt P08887 20-365); assay: mono phage ELISA, ratio of OD on IL-6R full to OD on a-myc
T1 construct: domain: IL-6R full domain; Expressed transiently in HEK293E and purified from the supernatant; also called IL-6R 항원; not shown: Fc part from expression vector pYK 604
T1 sequence (looked up): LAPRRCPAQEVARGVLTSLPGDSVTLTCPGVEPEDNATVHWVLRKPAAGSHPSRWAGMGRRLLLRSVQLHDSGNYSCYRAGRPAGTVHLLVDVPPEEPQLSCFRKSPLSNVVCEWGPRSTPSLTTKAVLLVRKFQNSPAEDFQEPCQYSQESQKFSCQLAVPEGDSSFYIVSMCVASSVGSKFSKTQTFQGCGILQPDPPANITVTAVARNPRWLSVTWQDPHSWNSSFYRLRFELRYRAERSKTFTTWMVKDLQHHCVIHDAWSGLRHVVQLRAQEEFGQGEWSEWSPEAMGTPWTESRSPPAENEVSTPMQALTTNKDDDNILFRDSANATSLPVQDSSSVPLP

[2] = target: T1, IL-6R-Fc 항원 (IL-6R full domain 단백질); assay: mono phage ELISA, antigen coated 100 ng/well, anti-M13-HRP
[3] = target: T1, IL-6R-Fc 항원 (IL-6R full domain 단백질); assay: ELISA titration on coated IL-6R, anti-Fab-HRP
[4] = target: T1, IL-6R-Fc 항원 (IL-6R full domain 단백질); assay: ELISA, coated IL-6R 100 ng/well, anti-Fab-HRP
[5] = target: T1, IL-6R-Fc 항원 (IL-6R full domain 단백질); assay: ELISA (summary table; same value as the 3rd table)

B1: 모노 파아지 클론 B10 (scFv on phage) (scFv)
chain: DVHSQVQLVESGGGLVQPGGSLRLSCAASGFIFDDYAMFWVRQVPGKGLEWVAGINWNGNGIGYGDSVRGRFIISRDNARNSLDLQMNSLRAEDTAVYYCARPSLYGGNSEFDLWGQGTLVTVSSDVHSQLVLTQPPSVSGAPGQTVTISCTGPTIGAGYDVHWYQQLPGAAPKLLIYGNLNRPSGVPDRFSGSKSGTSASLAITDLQAEDEADYYCHTYDSSLSGSWVFGGGTKLTVL
OD 490 nm (a-myc) (a-Myc): 0.113 OD490
OD 490 nm (Fc) (Fc): 0.0406 OD490
Ratio (IL-6R full / a-myc) [1]: 18.6
OD 490 nm (IL-6R full) [2]: 2.1 OD490

B2: 모노 파아지 클론 A7 (scFv on phage) (scFv)
chain: DVHSQMQLVESGGGLVQPGTSLRLSCAASGFKFEDYAMHWVRQAPGKGLEWVSGVSWNSGTIAYVDSVKGRFTISRDNAKNSLYLQMNSLRAEDTAVYYCARDFTYFYESSGYYAFDLWGQGTMVTVSSDVHSQLVLTQPPSVSGAPGQRVTISCTGTNSNIGAGYDVHWYQQVPGTTPKLLIYGNTNRPSGVPDRFSGSKSGTSASLAITGLQAEDGGDYYCQSFDSSLTGSVFGTGTKVTVL
OD 490 nm (a-myc) (a-Myc): 0.0797 OD490
OD 490 nm (Fc) (Fc): 0.0421 OD490
Ratio (IL-6R full / a-myc) [1]: 31.1
OD 490 nm (IL-6R full) [2]: 2.48 OD490

B3: 항 IL-6R 단클론 항체 B10 (IgG) (antibody, V domains shown)
VH: QVQLVESGGGLVQPGGSLRLSCAASGFIFDDYAMFWVRQVPGKGLEWVAGINWNGNGIGYGDSVRGRFIISRDNARNSLDLQMNSLRAEDTAVYYCARPSLYGGNSEFDLWGQGTLVTVSS
VL: SQLVLTQPPSVSGAPGQTVTISCTGPTIGAGYDVHWYQQLPGAAPKLLIYGNLNRPSGVPDRFSGSKSGTSASLAITDLQAEDEADYYCHTYDSSLSGSWVFGGGTKLTVL
notes: Phage clone converted to whole IgG
Kd [3]: 4.3 nM
OD 490 nm at 0.02441 nM antibody [4]: 0.468 OD490
OD 490 nm at 0.04883 nM antibody [4]: 0.451 OD490
OD 490 nm at 0.09766 nM antibody [4]: 0.462 OD490
OD 490 nm at 0.19531 nM antibody [4]: 0.429 OD490
OD 490 nm at 0.39063 nM antibody [4]: 0.476 OD490
OD 490 nm at 0.78125 nM antibody [4]: 0.5 OD490
OD 490 nm at 1.5625 nM antibody [4]: 0.607 OD490
OD 490 nm at 3.125 nM antibody [4]: 0.761 OD490
OD 490 nm at 6.25 nM antibody [4]: 1.04 OD490
OD 490 nm at 12.5 nM antibody [4]: 1.39 OD490
OD 490 nm at 25 nM antibody [4]: 1.78 OD490
OD 490 nm at 50 nM antibody [4]: 2.09 OD490
Kd [5]: 4.3 nM

B4: 항 IL-6R 단클론 항체 D2 (IgG) (antibody, V domains shown)
VH: QVQLVESGAEVKKPGSSVKVSCKGSGDTFPNYAINWVRQAPGQGPEWMGRIIPMLGTSDYAEKFQGRVTITADKSTNTAYMGLNSLRSEDTAVYYCVKGPRYYGTDSYYLEKWGQGTMVTVSS
VL: SQLVLTQPPSVSGAPGQTVTISCTGPTIGAGYDVHWYQQLPGAAPKLLIYGNLNRPSGVPDRFSGSKSGTSASLAITDLQAEDEADYYCHTYDSSLSGSWVFGGGTKLTVL
notes: as for B3
Kd [3]: 7.5 nM
OD 490 nm at 0.02441 nM antibody [4]: 0.449 OD490
OD 490 nm at 0.04883 nM antibody [4]: 0.451 OD490
OD 490 nm at 0.09766 nM antibody [4]: 0.45 OD490
OD 490 nm at 0.19531 nM antibody [4]: 0.469 OD490
OD 490 nm at 0.39063 nM antibody [4]: 0.473 OD490
OD 490 nm at 0.78125 nM antibody [4]: 0.479 OD490
OD 490 nm at 1.5625 nM antibody [4]: 0.584 OD490
OD 490 nm at 3.125 nM antibody [4]: 0.719 OD490
OD 490 nm at 6.25 nM antibody [4]: 0.981 OD490
OD 490 nm at 12.5 nM antibody [4]: 1.47 OD490
OD 490 nm at 25 nM antibody [4]: 1.94 OD490
OD 490 nm at 50 nM antibody [4]: 2.38 OD490
Kd [5]: 7.5 nM

B5: 모노 파아지 클론 F2 (scFv on phage) (scFv)
chain: DVHSQVQLVESGAEVKKPGASVKVSCKASGYTFTNYYMHWVRQAPGQGLEWMGIINPSGGNTGYAQKFQGRVTMTRDMSTSTAYMELSSLRSEDTAVYYCARGLPWGENGLDVWGQGTTVTVSSDVHSQLVLTQPSSVSGAPGQTVTISCTGSSSNIGAGYDVHWYQQLPGTAPKVLIYGDSDRPSGVPDRFSGSKSATSASLAITGLQAEDEADYYCQSYDSSLSAYVFGTGTKVTVL
OD 490 nm (a-myc) (a-Myc): 0.287 OD490
OD 490 nm (Fc) (Fc): 0.0405 OD490
Ratio (IL-6R full / a-myc) [1]: 9.96
OD 490 nm (IL-6R full) [2]: 2.86 OD490

B6: 항 IL-6R 단클론 항체 F2 (IgG) (antibody, V domains shown)
VH: QVQLVESGAEVKKPGASVKVSCKASGYTFTNYYMHWVRQAPGQGLEWMGIINPSGGNTGYAQKFQGRVTMTRDMSTSTAYMELSSLRSEDTAVYYCARGLPWGENGLDVWGQGTTVTVSS
VL: SQLVLTQPSSVSGAPGQTVTISCTGSSSNIGAGYDVHWYQQLPGTAPKVLIYGDSDRPSGVPDRFSGSKSATSASLAITGLQAEDEADYYCQSYDSSLSAYVFGTGTKVTVL
notes: as for B3
Kd [3]: 0.35 nM
OD 490 nm at 0.02441 nM antibody [4]: 0.535 OD490
OD 490 nm at 0.04883 nM antibody [4]: 0.584 OD490
OD 490 nm at 0.09766 nM antibody [4]: 0.743 OD490
OD 490 nm at 0.19531 nM antibody [4]: 1.01 OD490
OD 490 nm at 0.39063 nM antibody [4]: 1.41 OD490
OD 490 nm at 0.78125 nM antibody [4]: 1.9 OD490
OD 490 nm at 1.5625 nM antibody [4]: 2.43 OD490
OD 490 nm at 3.125 nM antibody [4]: 2.72 OD490
OD 490 nm at 6.25 nM antibody [4]: 2.71 OD490
OD 490 nm at 12.5 nM antibody [4]: 2.92 OD490
OD 490 nm at 25 nM antibody [4]: 2.89 OD490
OD 490 nm at 50 nM antibody [4]: 2.99 OD490
Kd [5]: 0.35 nM

B7: 항 IL-6R 단클론 항체 A7 (IgG) (antibody, V domains shown)
VH: QMQLVESGGGLVQPGTSLRLSCAASGFKFEDYAMHWVRQAPGKGLEWVSGVSWNSGTIAYVDSVKGRFTISRDNAKNSLYLQMNSLRAEDTAVYYCARDFTYFYESSGYYAFDLWGQGTMVTVSS
VL: SQLVLTQPPSVSGAPGQRVTISCTGTNSNIGAGYDVHWYQQVPGTTPKLLIYGNTNRPSGVPDRFSGSKSGTSASLAITGLQAEDGGDYYCQSFDSSLTGSVFGTGTKVTVL
notes: as for B3
Kd [3]: 2.3 nM
OD 490 nm at 0.02441 nM antibody [4]: 0.514 OD490
OD 490 nm at 0.04883 nM antibody [4]: 0.498 OD490
OD 490 nm at 0.09766 nM antibody [4]: 0.497 OD490
OD 490 nm at 0.19531 nM antibody [4]: 0.546 OD490
OD 490 nm at 0.39063 nM antibody [4]: 0.618 OD490
OD 490 nm at 0.78125 nM antibody [4]: 0.782 OD490
OD 490 nm at 1.5625 nM antibody [4]: 1.17 OD490
OD 490 nm at 3.125 nM antibody [4]: 1.64 OD490
OD 490 nm at 6.25 nM antibody [4]: 2.13 OD490
OD 490 nm at 12.5 nM antibody [4]: 2.58 OD490
OD 490 nm at 25 nM antibody [4]: 2.84 OD490
OD 490 nm at 50 nM antibody [4]: 3.1 OD490
Kd [5]: 2.3 nM

B8: 모노 파아지 클론 D2 (scFv on phage) (scFv)
chain: DVHSQVQLVESGAEVKKPGSSVKVSCKGSGDTFPNYAINWVRQAPGQGPEWMGRIIPMLGTSDYAEKFQGRVTITADKSTNTAYMGLNSLRSEDTAVYYCVKGPRYYGTDSYYLEKWGQGTMVTVSSDVHSQLVLTQPPSVSGAPGQTVTISCTGPTIGAGYDVHWYQQLPGAAPKLLIYGNLNRPSGVPDRFSGSKSGTSASLAITDLQAEDEADYYCHTYDSSLSGSWVFGGGTKLTVL
OD 490 nm (a-myc) (a-Myc): 0.303 OD490
OD 490 nm (Fc) (Fc): 0.0415 OD490
Ratio (IL-6R full / a-myc) [1]: 7.71
OD 490 nm (IL-6R full) [2]: 2.34 OD490
